Tests used:
Conditions in all cases: both partners purified
[1] = biological target: T1, GST-yNpl4 (full length, wild type) (Saccharomyces cerevisiae, UniProt P33755 1-580); test: pull-down; GST-yNpl4 (0.5 μM) on glutathione beads with 0.5 μM yUfd1 alone; full-length proteins; SDS-PAGE, Coomassie (Fig. 3e)
T1 construct: Npl4 of Saccharomyces cerevisiae (yNpl4), full length; codon-optimized synthetic cDNA; also called GST-Npl4; source: E. coli Rosetta (DE3) (pGEX-6P1), purified (Glutathione Sepharose FF, Resource Q); not shown: GST, N-terminal, kept
T1 sequence (looked up): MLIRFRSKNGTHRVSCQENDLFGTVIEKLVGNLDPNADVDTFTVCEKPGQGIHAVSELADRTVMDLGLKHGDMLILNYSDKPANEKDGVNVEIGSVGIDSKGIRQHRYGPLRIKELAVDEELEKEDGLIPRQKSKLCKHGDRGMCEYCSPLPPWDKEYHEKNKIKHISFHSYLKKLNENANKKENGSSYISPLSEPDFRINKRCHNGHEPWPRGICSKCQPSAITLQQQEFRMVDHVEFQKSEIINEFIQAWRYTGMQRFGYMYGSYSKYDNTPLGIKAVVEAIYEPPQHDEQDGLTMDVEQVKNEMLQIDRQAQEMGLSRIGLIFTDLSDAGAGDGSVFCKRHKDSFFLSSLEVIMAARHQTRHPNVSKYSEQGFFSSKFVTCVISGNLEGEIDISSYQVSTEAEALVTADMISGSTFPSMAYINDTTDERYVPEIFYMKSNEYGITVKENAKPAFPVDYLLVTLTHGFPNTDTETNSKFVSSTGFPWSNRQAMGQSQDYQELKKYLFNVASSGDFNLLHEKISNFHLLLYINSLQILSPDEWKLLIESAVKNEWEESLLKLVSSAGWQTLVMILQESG

GST-yNpl4 M574Q = biological target: T2, GST-yNpl4 M574Q (Saccharomyces cerevisiae, UniProt P33755 1-580, M574Q); test: pull-down; GST-yNpl4 (0.5 μM, wild type or mutant) on Glutathione Sepharose 4B beads, 1 h at room temperature with 0.5 μM yUfd1, 3 μM Cdc48 (0.5 μM hexamer) and 1 μg K48 chains in 100 μL 50 mM Tris-HCl pH 7.5, 100 mM NaCl, 10% glycerol, 0.1% Triton X-100; chains detected by anti-Ub immunoblot, proteins by Ponceau S
T2 construct: Npl4 of Saccharomyces cerevisiae (yNpl4), full length; source: E. coli Rosetta (DE3) (pGEX-6P1), purified (Glutathione Sepharose FF, Resource Q); not shown: GST, N-terminal, kept
T2 sequence (looked up): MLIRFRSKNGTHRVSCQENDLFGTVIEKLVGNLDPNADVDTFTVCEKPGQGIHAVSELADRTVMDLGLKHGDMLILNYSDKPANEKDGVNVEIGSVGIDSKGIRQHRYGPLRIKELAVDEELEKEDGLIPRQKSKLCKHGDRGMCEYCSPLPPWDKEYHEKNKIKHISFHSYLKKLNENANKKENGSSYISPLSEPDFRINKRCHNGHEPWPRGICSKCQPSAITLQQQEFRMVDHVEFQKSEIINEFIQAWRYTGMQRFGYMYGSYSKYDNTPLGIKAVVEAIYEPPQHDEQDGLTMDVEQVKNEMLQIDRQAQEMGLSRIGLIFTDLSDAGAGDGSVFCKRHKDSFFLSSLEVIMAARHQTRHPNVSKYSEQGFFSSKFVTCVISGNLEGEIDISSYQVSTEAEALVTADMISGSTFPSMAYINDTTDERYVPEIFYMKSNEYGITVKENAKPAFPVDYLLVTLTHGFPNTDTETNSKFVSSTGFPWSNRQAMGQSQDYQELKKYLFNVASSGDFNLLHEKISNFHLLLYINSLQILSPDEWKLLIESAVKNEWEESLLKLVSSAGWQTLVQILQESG

GST-yNpl4 I575A = biological target: T3, GST-yNpl4 I575A (Saccharomyces cerevisiae, UniProt P33755 1-580, I575A); test: as above
T3 construct: Npl4 of Saccharomyces cerevisiae (yNpl4), full length; source: E. coli Rosetta (DE3) (pGEX-6P1), purified (Glutathione Sepharose FF, Resource Q); not shown: GST, N-terminal, kept
T3 sequence (looked up): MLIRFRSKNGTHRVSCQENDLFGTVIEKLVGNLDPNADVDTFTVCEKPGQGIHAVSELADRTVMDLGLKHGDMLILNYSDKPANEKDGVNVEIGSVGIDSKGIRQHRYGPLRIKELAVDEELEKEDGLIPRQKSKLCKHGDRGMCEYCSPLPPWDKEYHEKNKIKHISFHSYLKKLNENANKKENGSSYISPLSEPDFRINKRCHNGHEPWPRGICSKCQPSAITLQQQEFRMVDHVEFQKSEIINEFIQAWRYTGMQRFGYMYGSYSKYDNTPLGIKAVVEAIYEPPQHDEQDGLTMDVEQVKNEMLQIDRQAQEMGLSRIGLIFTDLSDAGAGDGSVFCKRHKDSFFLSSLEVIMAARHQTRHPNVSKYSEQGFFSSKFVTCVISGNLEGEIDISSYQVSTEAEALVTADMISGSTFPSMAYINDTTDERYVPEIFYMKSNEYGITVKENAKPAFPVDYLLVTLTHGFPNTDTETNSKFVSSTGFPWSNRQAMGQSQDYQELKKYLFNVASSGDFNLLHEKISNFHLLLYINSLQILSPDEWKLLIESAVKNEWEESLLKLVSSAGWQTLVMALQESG

Measured: binding result

B1: yUfd1 (full length, untagged) (natural protein, Saccharomyces cerevisiae, UniProt P53044 1-361, looked up)
chain: MFSGFSSFGGGNGFVNMPQTFEEFFRCYPIAMMNDRIRKDDANFGGKIFLPPSALSKLSMLNIRYPMLFKLTANETGRVTHGGVLEFIAEEGRVYLPQWMMETLGIQPGSLLQISSTDVPLGQFVKLEPQSVDFLDISDPKAVLENVLRNFSTLTVDDVIEISYNGKTFKIKILEVKPESSSKSICVIETDLVTDFAPPVGYVEPDYKALKAQQDKEKKNSFGKGQVLDPSVLGQGSMSTRIDYAGIANSSRNKLSKFVGQGQNISGKAPKAEPKQDIKDMKITFDGEPAKLDLPEGQLFFGFPMVLPKEDEESAAGSKSSEQNFQGQGISLRKSNKRKTKSDHDSSKSKAPKSPEVIEID
notes: Ufd1 of Saccharomyces cerevisiae (yUfd1), full length; codon-optimized synthetic cDNA; removal of GST by HRV3C is surmised; also called untagged Ufd1; source: E. coli Rosetta (DE3) (pGEX-6P1), purified
binds: [1] | GST-yNpl4 M574Q | GST-yNpl4 I575A

Reference: PMC6910952 (Nature Communications, 2019)
